Target: T1, NR-LU-10 antigen (Homo sapiens, UniProt P16422)
T1 construct: Positive NR-LU-10 tissue reactivity indicates NR-LU-10 antigen expression by such tissues; from tissue; host or cells: carcinoma and normal tissue specimens
T1 sequence (P16422 24-314): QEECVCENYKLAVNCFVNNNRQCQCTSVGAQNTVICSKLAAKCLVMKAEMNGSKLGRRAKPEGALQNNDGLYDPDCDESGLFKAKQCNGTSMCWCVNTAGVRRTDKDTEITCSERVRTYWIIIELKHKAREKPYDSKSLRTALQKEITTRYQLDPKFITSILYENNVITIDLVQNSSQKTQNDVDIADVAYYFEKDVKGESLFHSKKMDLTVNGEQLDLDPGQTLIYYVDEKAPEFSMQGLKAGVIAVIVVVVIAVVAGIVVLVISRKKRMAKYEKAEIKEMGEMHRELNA
Assay: NR-LU-10 reactivity with normal tissues (Table B)
Assay type: binding
Excerpt: Radioimmunoassays, immunoprecipitation and Fluorescence-Activated Cell Sorter (FACS) analysis were used to obtain reactivity profiles of NR-LU-10. The NR-LU-10 target antigen was present on either fixed cultured cells or in detergent extracts of various types of cancer cells. For example, the NR-LU-10 antigen is found in small cell lung, non-small cell lung, colon, breast, renal, ovarian, pancreatic, and other carcinoma tissues. Tumor reactivity of the NR-LU-10 antibody is set forth in Table A, while NR-LU-10 reactivity with normal tissues is set forth in Table B. The values in Table B are obtained as described below. Positive NR-LU-10 tissue reactivity indicates NR-LU-10 antigen expression by such tissues.
The tissue specimens were scored in accordance with three reactivity parameters: (1) the intensity of the reaction; (2) the uniformity of the reaction within the cell type; and (3) the percentage of cells reactive with the antibody. These three values are combined into a single weighted comparative value between 0 and 500, with 500 being the most intense reactivity. This comparative value facilitates comparison of different tissues. Table B includes a summary reactivity value, the number of tissue samples examined and the number of samples that reacted positively with NR-LU-10.

[1] = Salivary Gland: Acinar Epithelium
[2] = Salivary Gland: Duct Epithelium
[3] = Spleen: Lymphoid Follicle-Central
[4] = Spleen: Lymphoid Follicle-Peripheral
[5] = Spleen: Trabecular Smooth Muscle
[6] = Stomach: Muscularis Mucosa/Externa
[7] = Stromal Tissue: Arteriolar Smooth Muscle
[8] = Stromal Tissue: Fibrous Connective Tissue
[9] = Stromal Tissue: Mast Cells/Eosinophils
[10] = Tonsil: Lymphoid Follicle-Central
[11] = Tonsil: Lymphoid Follicle-Peripheral
[12] = Urinary Bladder: Mucosal Epithelium
[13] = Vagina/Cervix: Epithelial Glands
[14] = Vagina/Cervix: Squamous Epithelium

B1: NR-LU-10: 150 kilodalton IgG2b monoclonal antibody recognizing an approximately 40 kilodalton glycoprotein antigen expressed on most carcinomas (antibody, V domains shown)
VH: EVQLQQSGAELVKPGASVRLSCTASGFNIKDTYMHWVIERPEQGLEWIGRIDPANGNTKCDPKFQGKATITADTSSNTAYLQLSSLTSEDTAVYYCSREVLTGTWSLDYWGQGTSVTVSS
VL: DIQMIQSPSSMFASLGDRVSLSCRASQGIRGNLDWYQQKPGGTIKLLIYSTSNLNSGVPSRFSGSGSGSDYSLTISSLDSEDFADYYCLQRNAYPYTFGGGTKLEIK
Summary Reactivity (Nerve: Endoneurium): 0 | # Pos/Exam (Nerve: Neurolemma): 0/2 | Summary Reactivity (Nerve: Neurolemma): 0 | # Pos/Exam (Nerve: Neuron): 0/2 | Summary Reactivity (Nerve: Neuron): 0 | # Pos/Exam (Nerve: Perineurium): 0/2 | Summary Reactivity (Nerve: Perineurium): 0 | # Pos/Exam (Ovary: Corpus Luteum): 0/3 | Summary Reactivity (Ovary: Corpus Luteum): 0 | # Pos/Exam (Ovary: Eipthelium): 1/1 | Summary Reactivity (Ovary: Eipthelium): 270 | # Pos/Exam (Ovary: Granulosa): 1/3 | Summary Reactivity (Ovary: Granulosa): 400 | # Pos/Exam (Ovary: Serosa): 0/3 | Summary Reactivity (Ovary: Serosa): 0 | # Pos/Exam (Ovary: Theca): 0/3 | Summary Reactivity (Ovary: Theca): 0 | # Pos/Exam (Oviduct: Epithelium): 1/1 | Summary Reactivity (Oviduct: Epithelium): 500 | # Pos/Exam (Oviduct: Smooth Muscle): 0/3 | Summary Reactivity (Oviduct: Smooth Muscle): 0 | # Pos/Exam (Pancreas: Acinar Cell): 3/3 | Summary Reactivity (Pancreas: Acinar Cell): 500 | # Pos/Exam (Pancreas: Duct Epthelium): 3/3 | Summary Reactivity (Pancreas: Duct Epthelium): 500 | # Pos/Exam (Pancreas: Islet Cell): 3/3 | Summary Reactivity (Pancreas: Islet Cell): 500 | # Pos/Exam (Peritoneum: Mesothelium): 0/1 | Summary Reactivity (Peritoneum: Mesothelium): 0 | # Pos/Exam (Pituitary: Adenohypophysis): 2/2 | Summary Reactivity (Pituitary: Adenohypophysis): 500 | # Pos/Exam (Pituitary: Neurohypophysis): 0/2 | Summary Reactivity (Pituitary: Neurohypophysis): 0 | # Pos/Exam (Placenta: Trophoblasts): 0/3 | Summary Reactivity (Placenta: Trophoblasts): 0 | # Pos/Exam (Prostate: Concretions): 0/3 | Summary Reactivity (Prostate: Concretions): 0 | # Pos/Exam (Prostate: Glandular Epithelium): 3/3 | Summary Reactivity (Prostate: Glandular Epithelium): 400 | # Pos/Exam (Prostate: Smooth Muscle): 0/3 | Summary Reactivity (Prostate: Smooth Muscle): 0 | # Pos/Exam (Rectum: Lymph Node): 0/2 | Summary Reactivity (Rectum: Lymph Node): 0 | # Pos/Exam (Rectum: Mucosal Epithelium): 0/2 | Summary Reactivity (Rectum: Mucosal Epithelium): 0 | # Pos/Exam (Rectum: Muscularis Externa): 0/1 | Summary Reactivity (Rectum: Muscularis Externa): 0 | # Pos/Exam (Rectum: Muscularis Mucosa): 0/3 | Summary Reactivity (Rectum: Muscularis Mucosa): 0 | # Pos/Exam (Rectum: Nerve Ganglia): 0/3 | Summary Reactivity (Rectum: Nerve Ganglia): 0 | # Pos/Exam [1]: 3/3 | Summary Reactivity [1]: 500 | # Pos/Exam [2]: 3/3 | Summary Reactivity [2]: 500 | # Pos/Exam (Skin: Apocrine Glands): 3/3 | Summary Reactivity (Skin: Apocrine Glands): 280 | # Pos/Exam (Skin: Basal Layer): 3/3 | Summary Reactivity (Skin: Basal Layer): 33 | # Pos/Exam (Skin: Epithelium): 1/3 | Summary Reactivity (Skin: Epithelium): 10 | # Pos/Exam (Skin: Follicle): 1/1 | Summary Reactivity (Skin: Follicle): 190 | # Pos/Exam (Skin: Stratum Corneum): 0/3 | Summary Reactivity (Skin: Stratum Corneum): 0 | # Pos/Exam (Spinal Cord: Axons, Myelinated): 0/2 | Summary Reactivity (Spinal Cord: Axons, Myelinated): 0 | # Pos/Exam (Spinal Cord: Microglial): 0/2 | Summary Reactivity (Spinal Cord: Microglial): 0 | # Pos/Exam (Spinal Cord: Neurons): 0/2 | Summary Reactivity (Spinal Cord: Neurons): 0 | # Pos/Exam [3]: 0/3 | Summary Reactivity [3]: 0 | # Pos/Exam [4]: 0/3 | Summary Reactivity [4]: 0 | # Pos/Exam [5]: 0/3 | Summary Reactivity [5]: 0 | # Pos/Exam (Stomach: Chief Cells): 3/3 | Summary Reactivity (Stomach: Chief Cells): 290 | # Pos/Exam (Stomach: Mucosal Epithelium): 3/3 | Summary Reactivity (Stomach: Mucosal Epithelium): 367 | # Pos/Exam [6]: 0/3 | Summary Reactivity [6]: 0 | # Pos/Exam (Stomach: Parietal Cells): 3/3 | Summary Reactivity (Stomach: Parietal Cells): 290 | # Pos/Exam (Stomach: Smooth Muscle): 0/3 | Summary Reactivity (Stomach: Smooth Muscle): 0 | # Pos/Exam (Stromal Tissue: Adipose): 0/63 | Summary Reactivity (Stromal Tissue: Adipose): 0 | # Pos/Exam [7]: 0/120 | Summary Reactivity [7]: 0 | # Pos/Exam (Stromal Tissue: Endothelium): 0/120 | Summary Reactivity (Stromal Tissue: Endothelium): 0 | # Pos/Exam [8]: 0/120 | Summary Reactivity [8]: 0 | # Pos/Exam (Stromal Tissue: Macrophages): 0/117 | Summary Reactivity (Stromal Tissue: Macrophages): 0 | # Pos/Exam [9]: 0/86 | Summary Reactivity [9]: 0 | # Pos/Exam (Testis: Interstitial Cells): 0/3 | Summary Reactivity (Testis: Interstitial Cells): 0 | # Pos/Exam (Testis: Sertoli Cells): 3/3 | Summary Reactivity (Testis: Sertoli Cells): 93 | # Pos/Exam (Thymus: Hassal's Epithelium): 3/3 | Summary Reactivity (Thymus: Hassal's Epithelium): 147 | # Pos/Exam (Thymus: Hassal's Keratin): 3/3 | Summary Reactivity (Thymus: Hassal's Keratin): 333 | # Pos/Exam (Thymus: Lymphoid Cortex): 0/3 | Summary Reactivity (Thymus: Lymphoid Cortex): 0 | # Pos/Exam (Thymus: Lymphoid Medulla): 3/3 | Summary Reactivity (Thymus: Lymphoid Medulla): 167 | # Pos/Exam (Thyroid: C-Cells): 0/3 | Summary Reactivity (Thyroid: C-Cells): 0 | # Pos/Exam (Thyroid: Colloid): 0/3 | Summary Reactivity (Thyroid: Colloid): 0 | # Pos/Exam (Thyroid: Follicular Epithelium): 3/3 | Summary Reactivity (Thyroid: Follicular Epithelium): 500 | # Pos/Exam (Tonsil: Epithelium): 1/3 | Summary Reactivity (Tonsil: Epithelium): 500 | # Pos/Exam [10]: 0/3 | Summary Reactivity [10]: 0 | # Pos/Exam [11]: 0/3 | Summary Reactivity [11]: 0 | # Pos/Exam (Tonsil: Mucus Gland): 1/1 | Summary Reactivity (Tonsil: Mucus Gland): 300 | # Pos/Exam (Tonsil: Striated Muscle): 0/3 | Summary Reactivity (Tonsil: Striated Muscle): 0 | # Pos/Exam (Umbilical Cord: Epithelium): 0/3 | Summary Reactivity (Umbilical Cord: Epithelium): 0 | # Pos/Exam [12]: 3/3 | Summary Reactivity [12]: 433 | # Pos/Exam (Urinary Bladder: Serosa): 0/1 | Summary Reactivity (Urinary Bladder: Serosa): 0 | # Pos/Exam (Urinary Bladder: Smooth Muscle): 0/3 | Summary Reactivity (Urinary Bladder: Smooth Muscle): 0 | # Pos/Exam (Uterus: Endometrial Epithelium): 3/3 | Summary Reactivity (Uterus: Endometrial Epithelium): 500 | # Pos/Exam (Uterus: Endometrial Glands): 3/3 | Summary Reactivity (Uterus: Endometrial Glands): 500 | # Pos/Exam (Uterus: Smooth Muscle): 0/3 | Summary Reactivity (Uterus: Smooth Muscle): 0 | # Pos/Exam [13]: 1/1 | Summary Reactivity [13]: 500 | # Pos/Exam (Vagina/Cervix: Smooth Muscle): 0/2 | Summary Reactivity (Vagina/Cervix: Smooth Muscle): 0 | # Pos/Exam [14]: 1/1 | Summary Reactivity [14]: 200
